# Reference: publication doi:10.1101/2021.05.25.445618
# What was measured:
# [1] = target: C-terminally myc-tagged ClpP2 (ClpP2-2×myc) (L. monocytogenes EGD-e); assay: affinity purification with mass spectrometry
# [2] = target: L. monocytogenes ClpP2 of the co-expressed ClpP1/2 preparation (L. monocytogenes); assay: SEC
# [3] = target: L. monocytogenes ClpP2, separately overexpressed and purified (ClpP2_(14)) (L. monocytogenes); assay: SEC + other: intact protein mass spectrometry
# [4] = target: L. monocytogenes ClpP1 of the co-expressed ClpP1/2 preparation (L. monocytogenes); assay: SEC
# [5] = target: L. monocytogenes ClpP1, separately overexpressed and purified (ClpP1_(7)) (L. monocytogenes); assay: SEC
# [6] = target: L. monocytogenes ClpP1, separately overexpressed and purified (ClpP1_(7)) (L. monocytogenes); assay: SEC + other: intact protein mass spectrometry
substance,measurement,setting,value
"ClpP1, endogenous in L. monocytogenes (enzyme)",fold enrichment at 42 °C over 20 °C,[1],6 fold
L. monocytogenes ClpP2 of the co-expressed ClpP1/2 preparation (enzyme),stoichiometry N,[2],14
"L. monocytogenes ClpP2, separately overexpressed and purified (ClpP2_(14)) (enzyme)",stoichiometry N,[3],14
L. monocytogenes ClpP1 of the co-expressed ClpP1/2 preparation (enzyme),stoichiometry N,[4],7
"L. monocytogenes ClpP1, separately overexpressed and purified (ClpP1_(7)) (enzyme)",stoichiometry N,[5],7
same,stoichiometry N,[6],7
same,percent ClpP1 in the tetradecamer peak,[3],40 to 44%
